Laboratory results: patent CN1934266A (LILLY CO ELI, dated 2007)
Numbering of substitutions follows the chain as printed.

T1: 激活蛋白B (R&D Systems 659-AB) (UniProt P09529 293-407)
T1 construct: also called activin B
T1 sequence (looked up): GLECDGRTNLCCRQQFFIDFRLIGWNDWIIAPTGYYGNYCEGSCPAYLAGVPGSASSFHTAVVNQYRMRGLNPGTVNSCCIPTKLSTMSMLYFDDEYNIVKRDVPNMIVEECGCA

T2: 重组人GDF-11(Peprotech公司，目录号120-11) (human, UniProt O95390 299-407)
T2 sequence (looked up): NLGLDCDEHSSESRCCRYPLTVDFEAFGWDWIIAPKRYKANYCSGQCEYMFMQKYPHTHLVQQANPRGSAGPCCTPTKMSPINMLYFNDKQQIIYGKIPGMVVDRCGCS

T3: BMP-6 (R&D Systems 507-BP) (UniProt P22004 382-513, limits assumed)
T3 sequence (looked up): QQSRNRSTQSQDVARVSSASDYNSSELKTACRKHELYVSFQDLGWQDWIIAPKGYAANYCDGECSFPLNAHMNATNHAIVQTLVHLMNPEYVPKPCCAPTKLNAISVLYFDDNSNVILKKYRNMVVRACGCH

T4: BMP-5 (R&D Systems 615-BM) (UniProt P22003 317-454, limits assumed)
T4 sequence (looked up): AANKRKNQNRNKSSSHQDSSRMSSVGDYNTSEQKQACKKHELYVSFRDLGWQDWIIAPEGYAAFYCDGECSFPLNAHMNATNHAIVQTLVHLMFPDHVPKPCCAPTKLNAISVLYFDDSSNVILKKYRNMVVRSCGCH

T5: TGF-b2 (Peprotech 100-35) (UniProt P61812 303-414)
T5 construct: also called TGF-β2
T5 sequence (looked up): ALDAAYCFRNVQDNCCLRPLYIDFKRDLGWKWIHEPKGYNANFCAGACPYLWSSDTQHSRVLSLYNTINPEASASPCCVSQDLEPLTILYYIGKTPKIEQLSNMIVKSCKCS

T6: BMP-7 (R&D Systems 354-BP) (UniProt P18075 293-431)
T6 sequence (looked up): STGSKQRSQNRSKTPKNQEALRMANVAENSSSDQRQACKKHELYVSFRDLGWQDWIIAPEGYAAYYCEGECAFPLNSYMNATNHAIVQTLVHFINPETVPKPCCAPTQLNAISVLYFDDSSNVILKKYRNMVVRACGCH

T7: 激活蛋白A (R&D Systems 338-AC) (UniProt P08476 311-426)
T7 construct: also called activin A
T7 sequence (looked up): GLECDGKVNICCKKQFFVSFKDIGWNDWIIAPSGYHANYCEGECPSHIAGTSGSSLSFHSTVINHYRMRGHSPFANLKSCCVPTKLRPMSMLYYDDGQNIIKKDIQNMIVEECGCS

B1: 抗肌肉生长抑素Fab 3 (Fab, V domains shown)
VH: QVTLKESGPGILQSSQTLSLTCSLSGFSLRTSGMSVSWIRQSSGKGLEWLAHIYWDDDKRYNPSLRNRLTISKDTLRNQVFLKITSVGTADTATYYCARRAITTVIGGGTMDYWGQGTSVTVSS
VL: QIVLTQSPAIMSASPGEKVTMTCSASSSISYMHWYQQKPGTSPKRWIYDTSKLASGVPARFSGSGSGTSYSLTISSMEAEDAATYYCQQWYSNPLTFGAGTKLELKR
B2: 抗肌肉生长抑素Fab 7 (Fab, V domains shown)
VH: QVTLKSGPGILQSSQTLTLTCSLSGFSLTTSGMIVSWIRQSSGRGLEWLAHIYWDDDKRYNPSLRNRLTISKDTLRNQVFLWISSVGTADTATYYCARRAITTVIGGGTMDYWGQGTSVTVSS
VL: B1 VL
B3: 抗肌肉生长抑素Fab 5 (Fab, V domains shown)
VH: B1 VH with L24F, R30S, N67S, L76S, G88D, A101G, I106L
VL: B1 VL with I2V, P15L, I29V, S30H, P39S, Y91S

What follows are binders tested against T8, TGF-a (R&D Systems 239-A) (UniProt P01135 40-89) (assay: ELISA, growth factor coated at 10 μg/ml, antibody at 10 μg/ml, mean of duplicates).
T8 construct: also called TGF-α
T8 sequence (P01135 40-89 limits assumed): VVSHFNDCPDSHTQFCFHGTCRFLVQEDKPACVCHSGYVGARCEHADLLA

Compared with B1, B2 is lower in “平均吸光度 (OD 490 nm)” value: 0.033 OD 490 nm for the first, 0.0315 OD 490 nm for the second.

For B3, the “平均吸光度 (OD 490 nm)” value was 0.033 OD 490 nm.

What follows are binders tested against T1, 激活蛋白B (R&D Systems 659-AB) in the same assay as above.

Going from B1 to B2, the “平均吸光度 (OD 490 nm)” value falls from 0.032 OD 490 nm to 0.031 OD 490 nm.

B3 was tested, and the “平均吸光度 (OD 490 nm)” value was 0.033 OD 490 nm.

What follows are binders tested against BMP-2 (R&D Systems 355-BEC/CF) (UniProt P12643 283-396) in the same assay as above.
Sequence of BMP-2 (R&D Systems 355-BEC/CF) (P12643 283-396 limits assumed): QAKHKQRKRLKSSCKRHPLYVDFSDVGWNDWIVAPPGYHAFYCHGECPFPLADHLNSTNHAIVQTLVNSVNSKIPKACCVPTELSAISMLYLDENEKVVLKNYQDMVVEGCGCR

First: B1
Second: B2
The “平均吸光度 (OD 490 nm)” value of the first is higher: 0.0345 OD 490 nm for the first, 0.0335 OD 490 nm for the second.

With B3 the “平均吸光度 (OD 490 nm)” value was 0.032 OD 490 nm.

These binders were tested against T2, 重组人GDF-11(Peprotech公司，目录号120-11) in the same assay as above.

Compared with B1, B2 is lower in “平均吸光度 (OD 490 nm)” value: 0.0705 OD 490 nm for the first, 0.04 OD 490 nm for the second.

With B3 the “平均吸光度 (OD 490 nm)” value was 0.034 OD 490 nm.

The binders below were run against T3, BMP-6 (R&D Systems 507-BP) in the same assay as above.

Compared with B1, B2 is higher in “平均吸光度 (OD 490 nm)” value: 0.0335 OD 490 nm for the first, 0.035 OD 490 nm for the second.

B3 was tested, and the “平均吸光度 (OD 490 nm)” value was 0.0325 OD 490 nm.

The binders below were run against T9, TGF-b1 (Peprotech 100-21R) (UniProt P01137 279-390) in the same assay as above.
T9 construct: also called TGF-β1
T9 sequence (P01137 279-390 limits assumed): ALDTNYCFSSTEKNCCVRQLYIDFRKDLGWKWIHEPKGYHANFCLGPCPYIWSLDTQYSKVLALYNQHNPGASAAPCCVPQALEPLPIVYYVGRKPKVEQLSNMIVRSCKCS

Going from B1 to B2, the “平均吸光度 (OD 490 nm)” value falls from 0.034 OD 490 nm to 0.032 OD 490 nm.

B3 was tested, and the “平均吸光度 (OD 490 nm)” value was 0.0325 OD 490 nm.

What follows are binders tested against IGF-1 (R&D Systems 291-G1) (UniProt P05019 49-118) in the same assay as above.
Sequence of IGF-1 (R&D Systems 291-G1) (P05019 49-118 limits assumed): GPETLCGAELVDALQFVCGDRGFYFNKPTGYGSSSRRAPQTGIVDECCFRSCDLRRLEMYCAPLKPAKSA

B1 and B2 are the same in “平均吸光度 (OD 490 nm)” value: 0.034 OD 490 nm for the first, 0.034 OD 490 nm for the second.

With B3 the “平均吸光度 (OD 490 nm)” value was 0.035 OD 490 nm.

The binders below were run against T4, BMP-5 (R&D Systems 615-BM) in the same assay as above.

First: B1
Second: B2
The “平均吸光度 (OD 490 nm)” value of the first is lower: 0.034 OD 490 nm for the first, 0.0345 OD 490 nm for the second.

With B3 the “平均吸光度 (OD 490 nm)” value was 0.033 OD 490 nm.

Each binder was assayed against T5, TGF-b2 (Peprotech 100-35) in the same assay as above.

First: B1
Second: B2
The “平均吸光度 (OD 490 nm)” value of the first is lower: 0.034 OD 490 nm for the first, 0.0345 OD 490 nm for the second.

B3 was tested, and the “平均吸光度 (OD 490 nm)” value was 0.034 OD 490 nm.

Each binder was assayed against T6, BMP-7 (R&D Systems 354-BP) in the same assay as above.

Compared with B1, B2 is lower in “平均吸光度 (OD 490 nm)” value: 0.033 OD 490 nm for the first, 0.031 OD 490 nm for the second.

With B3 the “平均吸光度 (OD 490 nm)” value was 0.032 OD 490 nm.

These binders were tested against T7, 激活蛋白A (R&D Systems 338-AC) in the same assay as above.

Compared with B1, B2 is lower in “平均吸光度 (OD 490 nm)” value: 0.033 OD 490 nm for the first, 0.0325 OD 490 nm for the second.

For B3, the “平均吸光度 (OD 490 nm)” value was 0.033 OD 490 nm.
